Consider nine molecules from article PMC12077092, “A novel micronemal protein MP38 is involved in the invasion of merozoites into erythrocytes” (mBio, 2025).

Assay [1] concerns the target Pv12 full-length ectodomain, human IgG1-Fc-tagged (Plasmodium vivax). Nature of the assay: BLI; Gator system, anti-human IgG Fc (HFC) probes; Fc-tagged protein immobilised (10 uM, 120 s); His-tagged protein 1.5 to 100 uM, 300 s association, 600 s dissociation in PBS; 1:1 global fit. A general note: Biolayer interferometry detects binding as a change in optical thickness at a sensor tip.

Assay [2] concerns the target Pv41 full-length ectodomain, His-tagged (Plasmodium vivax). In words: native gel or EMSA; blue native PAGE, 4%-16%, purified His-tagged recombinant protein, Coomassie stain. A general note: Mobility shift assays separate free from complexed probe on a gel.
The target of assay [3] is Pv41 full-length ectodomain, human IgG1-Fc-tagged (Plasmodium vivax). In words: BLI; Gator system, anti-human IgG Fc (HFC) probes; Fc-tagged protein immobilised (10 uM, 120 s); His-tagged protein 1.5 to 100 uM, 300 s association, 600 s dissociation in PBS; 1:1 global fit.
For assay [4], the target named is Pv12 full-length ectodomain, His-tagged (Plasmodium vivax). In words: native gel or EMSA; blue native PAGE, 4%-16%, purified His-tagged recombinant protein, Coomassie stain.
Assay [5] addresses Pv41-Fc (PVX_000995, ectodomain E22-E384, human IgG1 Fc fusion) (Plasmodium vivax) (UniProt A5KAP6). In words: BLI; Gator system, anti-human IgG Fc (HFC) probes; Fc-tagged protein immobilised (10 µM, 120 s); His-tagged protein in serial dilution (1.5 to 100 µM by the methods; 1.5625-100 nM in the key of Fig. S3C), association 300 s, dissociation 600 s in PBS; 1:1 global fit; two experiments with different batches of protein.

Assay [6] addresses Pk12-Fc (PKNH_1137300, ectodomain F24-S344, human IgG1 Fc fusion) (Plasmodium knowlesi). The description is as above.
Assay [7] concerns the target Pv12-Fc (PVX_113775, ectodomain F24-A339, human IgG1 Fc fusion) (Plasmodium vivax) (UniProt A5K1W7). The assay is described as above.
Assay [8] addresses T1, PvDBP-RII (194-521 aa.)-8His (Plasmodium vivax, UniProt P22290 194-521).
T1 construct: also called PvDBPII-His; PvDBP-RII-His; source: HEK293-EBNA1 cells, transiently transfected, purified from culture supernatant (Ni-NTA); not shown: 8xHis, C-terminal, kept
Described as above. As to conditions: both partners purified.

The target of assay [9] is T2, P. vivax Duffy-binding protein region II, His-tagged (194-521 aa) (Plasmodium vivax, UniProt P22290 194-521).
T2 construct: also called PvDBPII-His; PvDBP-RII-His; source: HEK293-EBNA1 (HEK293E), transiently transfected, purified from culture supernatant (Ni-NTA); not shown: 8xHis, C-terminal, kept
Nature of the assay: BLI; Gator system, anti-human IgG Fc (HFC) probes; Fc-tagged protein immobilised (10 uM, 120 s); His-tagged protein 1.5 to 100 uM, 300 s association, 600 s dissociation in PBS; 1:1 global fit. The settings on record: both partners purified.

Several values for one entry are separate records, joined by “and”; a condition that tells them apart may be missing. Identical values can stand only once.

Broadly, the Kd is the equilibrium constant for the complex coming apart. Broadly, the stoichiometry N is a count of units in the complex or per binding partner. In [1], “Pv41 full-length ectodomain, His-tagged (domain or fragment)” displayed a Kd of 14.2 nM. Also, in assay [2], the stoichiometry N came out at 2.

“Pv12 full-length ectodomain, His-tagged (domain or fragment)” showed an equilibrium dissociation constant (Kd) in [3] of 0.53 nM. The stoichiometry N in assay [4] was determined as 2.

Usually koff stands for the rate constant with which the complex falls apart. The kon is the second-order rate constant of association. Regarding “Pk12-8His (PKNH_1137300, ectodomain F24-S344) (domain or fragment)”, in assay [5], the equilibrium dissociation constant (Kd) was 184 nM and 160 nM; the koff was 0.0485 s⁻¹ and 0.0454 s⁻¹; the kon was 263000 M⁻¹ s⁻¹ and 284000 M⁻¹ s⁻¹.

On to “PvMP38-8His (PVX_110945, full-length ectodomain D28-K343) (domain or fragment)”, for which the Kd is 0.833 nM and 0.96 nM in assay [6]; 2.39 nM and 2.56 nM in assay [7].

“Pv41-8His (PVX_000995, ectodomain E22-E384) (from UniProt A5KAP6 22-384) (domain or fragment)”: the Kd in [6] is 19 nM and 11.4 nM. Also, in assay [7], the dissociation constant (Kd) is 12.2 nM and 16.1 nM; the off-rate (koff) is 0.000662 s⁻¹ and 0.000803 s⁻¹; the on-rate constant (kon) is 54300 M⁻¹ s⁻¹ and 50000 M⁻¹ s⁻¹.

Turning to “Pv12-8His (PVX_113775, ectodomain F24-A339) (from UniProt A5K1W7 24-339) (domain or fragment)”, in [5], the Kd is 0.555 nM and 0.512 nM; the off-rate constant (koff) is 0.000174 s⁻¹ and 0.000156 s⁻¹; the association rate constant (kon) was 314000 M⁻¹ s⁻¹ and 305000 M⁻¹ s⁻¹.

Turning to “PvMP38 (PVX_110945), full-length ectodomain, His-tagged (domain or fragment)”, the Kd in assay [1] stood at 2.46 nM.

B1: hDARC-Fc (human DARC M1-P63, human IgG1 Fc fusion) (Fc fusion, UniProt Q16570-1 1-63, looked up)
chain: MGNCLHRAELSPSTENSSQLDFEDVWNSSYGVNDSFPDGDYGANLEAAAPCHSCNLLDDSALP
notes: Duffy antigen/receptor for chemokines (DARC), human, NP_002027, region expressed M1-P63; also called human DARC-Fc; source: HEK293-EBNA1 cells, transiently transfected, purified from culture supernatant (HiTrap Protein G HP)
As for B1, the Kd in [8] was 3 nM and 2.39 nM.

B2: human DARC-Fc (1-63 aa) (Fc fusion, UniProt Q16570 1-63, looked up)
chain: MGNCLHRAELSPSTENSSQLDFEDVWNSSYGVNDSFPDGDYGANLEAAAPCHSCNLLDDSALP
notes: Duffy antigen/receptor for chemokines (DARC), human, residues 1-63; also called hDARC; source: HEK293-EBNA1 (HEK293E), transiently transfected, purified from culture supernatant (Protein G)
Molecule B2 displayed a Kd in assay [9] of 2.7 ± 0.43 nM.
